Source: paper PMC3549482
Like-named read-outs stand apart in the source and are kept apart here.

Assays:
[1] = target: CD81 on 293-T cells (human (endogenous in HEK 293-T)) (UniProt P60033); assay: flow cytometry on cells
[2] = target: CD81 on 293-T cells (human (endogenous in HEK 293-T)) (UniProt P60033); assay: flow cytometry on cells; remark: listed apart in the source

Chain of UniProt P60033 (P60033 whole entry): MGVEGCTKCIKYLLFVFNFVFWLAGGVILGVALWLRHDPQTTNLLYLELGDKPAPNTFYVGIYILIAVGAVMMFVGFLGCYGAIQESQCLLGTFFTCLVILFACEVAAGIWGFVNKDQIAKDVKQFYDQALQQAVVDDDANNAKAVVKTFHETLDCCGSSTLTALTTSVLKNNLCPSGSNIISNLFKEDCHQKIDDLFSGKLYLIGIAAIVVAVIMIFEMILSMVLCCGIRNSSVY

HCV E2 (strain not told for the experiment on 293-T cells) (natural protein)
Mean FI [1]: 62 | Mean FI [2]: 79
